Consider three molecules from paper PMC6868441 (Nucleic Acids Research, 2019).

Data set [1] deals with the molecule itself. Description: SEC.
Data set [2] has as its target T1, ArlR full length (Staphylococcus aureus, UniProt Q9KJN4 1-219).
T1 sequence: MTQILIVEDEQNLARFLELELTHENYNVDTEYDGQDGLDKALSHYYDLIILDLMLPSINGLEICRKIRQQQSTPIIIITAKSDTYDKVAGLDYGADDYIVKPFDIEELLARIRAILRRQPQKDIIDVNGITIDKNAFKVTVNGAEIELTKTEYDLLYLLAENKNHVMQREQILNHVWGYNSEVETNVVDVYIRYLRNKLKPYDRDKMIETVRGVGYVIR
The experiment in a line: EMSA. Background: Mobility shift assays separate free from complexed probe on a gel.

B1: ArlR receiver domain (amino acids 1–121) (domain or fragment, S. aureus, UniProt Q9KJN4 1-121, looked up)
chain: MTQILIVEDEQNLARFLELELTHENYNVDTEYDGQDGLDKALSHYYDLIILDLMLPSINGLEICRKIRQQQSTPIIIITAKSDTYDKVAGLDYGADDYIVKPFDIEELLARIRAILRRQPQ
The stoichiometry N is a count of units in the complex or per binding partner. For B1, the “stoichiometry N” value in data set [1] worked out at 2.

B2: Position 1,4&6 mutation 24 bp (dsDNA)
DNA 1: TGCTATTCTTTTAATTGGAAAGAG
DNA 2: CTCTTTCCAATTAAAAGAATAGCA
Consider B2, for which the binding result in data set [2] was “no binding”.

B3: ArlR-BdDNA-wt 24 bp (dsDNA)
DNA 1: TGATAGTATTTTAATTTGCAATAG
DNA 2: CTATTGCAAATTAAAATACTATCA
Regarding B3, the binding result in data set [2] was “binds”.
